Target: T1, Mnl1 (C579S)–FLAG (S. cerevisiae, UniProt P38888 21-796, C579S)
T1 construct: Mnl1 (Htm1) of S. cerevisiae with a substituted loop cysteine; source: S. cerevisiae, overexpressed together with Pdi1, purified as a complex (anti-FLAG M2 resin, Superdex 200); not shown: FLAG, C-terminal, kept
T1 sequence (looked up): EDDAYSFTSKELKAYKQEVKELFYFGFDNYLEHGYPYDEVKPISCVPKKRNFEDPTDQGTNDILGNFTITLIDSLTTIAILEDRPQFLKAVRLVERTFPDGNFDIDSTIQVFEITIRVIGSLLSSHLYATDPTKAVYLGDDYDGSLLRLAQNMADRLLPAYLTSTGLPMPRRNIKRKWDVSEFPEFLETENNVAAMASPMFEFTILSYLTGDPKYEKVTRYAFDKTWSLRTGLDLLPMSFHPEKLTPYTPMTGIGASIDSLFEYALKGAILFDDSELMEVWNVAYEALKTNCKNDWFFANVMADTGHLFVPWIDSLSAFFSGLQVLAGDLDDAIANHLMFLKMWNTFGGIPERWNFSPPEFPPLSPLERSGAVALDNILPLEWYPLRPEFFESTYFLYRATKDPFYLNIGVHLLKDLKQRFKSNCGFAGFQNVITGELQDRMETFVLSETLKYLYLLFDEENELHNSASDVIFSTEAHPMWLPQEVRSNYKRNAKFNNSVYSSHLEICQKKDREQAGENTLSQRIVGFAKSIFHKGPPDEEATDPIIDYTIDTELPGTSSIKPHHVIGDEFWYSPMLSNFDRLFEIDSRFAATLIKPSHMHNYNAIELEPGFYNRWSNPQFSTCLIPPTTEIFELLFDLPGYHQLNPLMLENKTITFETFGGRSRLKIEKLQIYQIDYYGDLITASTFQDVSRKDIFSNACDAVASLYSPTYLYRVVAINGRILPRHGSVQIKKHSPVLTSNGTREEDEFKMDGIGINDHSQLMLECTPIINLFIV
Experiment: cross-linking; purified complexes of Pdi1 with wild-type or mutant Mnl1 incubated with increasing concentrations of DPS (2,2′-dipyridyldisulfide) to induce disulfides; non-reducing SDS-PAGE, Coomassie blue
Conditions: both partners purified

- binding result: binds
B1: Pdi1 (protein disulfide isomerase) (enzyme, S. cerevisiae, UniProt P17967 29-522, looked up)
chain: PEDSAVVKLATDSFNEYIQSHDLVLAEFFAPWCGHCKNMAPEYVKAAETLVEKNITLAQIDCTENQDLCMEHNIPGFPSLKIFKNSDVNNSIDYEGPRTAEAIVQFMIKQSQPAVAVVADLPAYLANETFVTPVIVQSGKIDADFNATFYSMANKHFNDYDFVSAENADDDFKLSIYLPSAMDEPVVYNGKKADIADADVFEKWLQVEALPYFGEIDGSVFAQYVESGLPLGYLFYNDEEELEEYKPLFTELAKKNRGLMNFVSIDARKFGRHAGNLNMKEQFPLFAIHDMTEDLKYGLPQLSEEAFDELSDKIVLESKAIESLVKDFLKGDASPIVKSQEIFENQDSSVFQLVGKNHDEIVNDPKKDVLVLYYAPWCGHCKRLAPTYQELADTYANATSDVLIAKLDHTENDVRGVVIEGYPTIVLYPGGKKSESVVYQGSRSLDSLFDFIKENGHFDVDGKALYEEAQEKAAEEADADAELADEEDAIHDEL
notes: Pdi1, protein disulfide isomerase of S. cerevisiae, untagged; Trx domains a, b, b′ and a′; amino acids 24–500 could be modelled; source: S. cerevisiae, overexpressed together with Mnl1–FLAG (GAL1 promoter), purified as a complex

— article PMC12170172, “Initiation of ERAD by the bifunctional complex of Mnl1/Htm1 mannosidase and protein disulfide isomerase” (Nature Structural & Molecular Biology, 2025)
